According to publication PMC8893199, “A Cysteine Variant at an Allosteric Site Alters MIF Dynamics and Biological Function in Homo- and Heterotrimeric Assemblies” (Frontiers in Molecular Biosciences, 2022):

Target: the molecule itself
Assay: AUC; sedimentation velocity, Y99C MIF homotrimer at three loading concentrations, PBS, 20°C, 50,000 rpm, c(s) analysis in SEDFIT

B1: Y99C MIF homotrimer (natural protein, human, UniProt P14174 1-115, looked up)
chain: MPMFIVNTNVPRASVPDGFLSELTQQLAQATGKPPQYIAVHVVPDQLMAFGGSSEPCALCSLHSIGKIGGAQNRSYSKLLCGLLAERLRISPDRVYINYCDMNAANVGWNNSTFA
notes: untagged; Made by site-directed mutagenesis of the WT MIF cDNA in pET-11b (construct from Pantouris et al., 2018); also called Y99C variant; homotrimeric Y99C MIF; source: E. coli BL21-Gold (DE3), pET-11b, purified (Q-Sepharose and SP flow-through, Superdex 75)
stoichiometry N: 3
